# Results from US20160207996A1 (ARGEN X N V, published 2016).
# Substitutions are numbered along the chain they refer to.
# T1: hNav1.7-loopA3-llama Fc fusion (human)
# T1 construct: also called hNav1.7-loopA3-llFc; loopA3-llamaFc chimera
# T1 chain: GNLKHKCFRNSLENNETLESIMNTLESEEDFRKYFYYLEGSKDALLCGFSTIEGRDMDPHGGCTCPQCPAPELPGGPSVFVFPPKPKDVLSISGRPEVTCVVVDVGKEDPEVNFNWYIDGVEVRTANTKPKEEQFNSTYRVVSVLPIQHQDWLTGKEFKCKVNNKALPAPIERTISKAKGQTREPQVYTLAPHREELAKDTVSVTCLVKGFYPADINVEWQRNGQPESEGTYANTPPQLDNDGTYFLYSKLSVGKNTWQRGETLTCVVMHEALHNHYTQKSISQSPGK
# B1: 2D11 (antibody, human IgG1, V domains shown)
# VH: EVQLQESGPGLVKPSQTLSLTCTVSGGSITNSYYASSWIRQPPGKGLEWMGVIIYDGSTYYSPSLKSRTSISRDTSKNQFSLQLSSVTPEDTAVYYCARGLRVAGSYFTDFGTWGQGTQVTVSS
# VL: SYELTQSPSVSVALRQAAKITCGGDNIASKHAHWYQQKPGQSPVLVIYKDSNRPSGIPERFSGSNSGNTATLTVSGAQAEDEADYYCQVWDSSANAAVFGGGTHLTVLG
# B2: 6H8 (antibody, human IgG1, V domains shown)
# VH: EVQLVESGGGLVQPGGTLRLSCAASGFTFSNYWMHWVRQAPGKGLEWVSVIDRGGGGTRYADSVKGRFTISRDNAKNTLYLRMNSLKPEDTALYYCTRDRNGEYDYWGRGTQVTVSS
# VL: DIQMTQSPSSVTASAGEKVTINCKSSQSVLYSSNQKNYLAWYQQRLGQSPRLLIYWASTRESGVPDRFSGSGSTTDFTLTINNFQPEDAAVYYCQQGYSAPLTFGQGTKVELK
# B3: 4F6 (antibody, human IgG1, V domains shown)
# VH: QLQLVESGGGLVQPGGSLRLSCAASGFTFDDYAMSWVRQAPGKGLEWVSAISWNGGSTYYAESMKGRFTISRDNAKNTLYLQMNSLKSKDTAVYYCARRRYGLGSEYDYWGQGTQVTVSS
# VL: HSAVTQPSAVSVSLGQTARITCQGTNLRSSYVHWYQQMPGQAPVLVIYRDSERPSGIPERFSGSSSGGTATLAISGAQAEDEADYYCQSAHRSESAVFGGGTHLTVLG
# B4: 4E8 (antibody, human IgG1, V domains shown)
# VH: B3 VH with Q1E, L2V, V5Q
# VL: NFMLTQPSAVSVSLGQTARITCQGSSFGSSYAHWYQQMPGQAPILVIYRDSERPSGIPDRFSGSNSGGTATLTISGAQAEDEADYYCQSGSSSGNAHAVFGGGTHLTVLG
# B5: 3F11 (antibody, human IgG1, V domains shown)
# VH: QVQLVESGGGLVQPGGSLRLSCAASGFTFSSYWMYWVRQAPGKGLEWVSAINTGGGSTYYADSVKGRFTISRDNAKNTLYLQMNSLKPEDTALYYCARGPGYSGSYIEGWAYWGQGTQVTVSS
# VL: DIVMTQSPTSVTASVGEKVTINCKSSQSVVSGSNQKSYLNWYQQRPGQSPRLLIYHASTQESGIPDRFSGSGSTTDFTLTISSVQPEDAAVYYCQQAYNNPYSFGSGTRLEIK
# B6: 2F12 (antibody, human IgG1, V domains shown)
# VH: B5 VH with S105K
# VL: B5 VL with T9R, T20F, G32E, K36R, H56Y, I64L, N99S, N100A
# B7: 3E1 (antibody, human IgG1, V domains shown)
# VH: B5 VH with Q1E, L4V, V5Q, S105K
# VL: B5 VL with T9S, N34K, H56Y, N99S, N100A
# B8: 4H6 (antibody, human IgG1, V domains shown)
# VH: QVQLQESGPGLVKPSQTLSLTCTVSGGSITNYGWSWIRQPPGKGLEWMGVIAYDGSTYYSPSLKSRTSISRDTSKNQFSLQLSSVTPEDTAVYYCASAMVTTSSPWVKTFGAWGQGTQVTVSS
# VL: QAGLTQPPSVSGSPGKTVTISCAGTSSDVGYGNYVSWYQQLPGMAPKLLLYSVNKRASGIADRFSGSKSGNTASLTISGLQSEDEADYYCGCYDSSLSTPVFGGGTKLTVLG
# B9: 4F7 (antibody, human IgG1, V domains shown)
# VH: QVQLQESGPGLVKPSQTLSLTCTVSGGSITTSFYAWSWIRQPPGKGLEWMGVIAYDGRTFYSPSLKSRTHISRDTSKNQFSLQLSSVTPEDTAVYYCARGGVVAWSYDYWGQGTQVTVSS
# VL: SYELTQSPSVSVALRQTAKITCGGNDIGSKSTQWYQQKAGQAPVLVIYADSRRPSGIPERFSGSNSGNTATLTISGAQAEDEADYYCQVWDSRADAAVFGGGTHLTVLG
# B10: scFv D1 (scFv)
# chain: QVQLQESGGGLVQPGGSLRLSCAASGFTFSWYAMSWVRQGPGKGLEWVSGINGGGGSTSYEDSVKGRFTISRDNAKNTLYLEMNSLKPEDTAVYYCARYSDGYSGSYTYTDMDYWGKGTLVSVSSQAVVTQEPSLSVSPGGTVTLTCGLNSGSVTNGNYPGWYQQTPGQAPRALIYSTNSRHSGVPGRYSGSISGNKAALTITGAEPEDEADYYCALWQAAGTVVFGGGTHLTVLG
# B11: scFv C2 (scFv)
# chain: QLQLVESGGGLQQPGGSLRLSCAASGFTFSSYAMGWVRQAPGKGLEWISIILNDGHRTYYTDSVKGRFTISRDNAKDTLSLQMNSLKPEDTAVYFCVKYVLNWAISDWGQGTQVTVSSQSVLTQPPSVSGSPGKTVTISCAGTSSDVGYGNYVSWYQQLPGMAPKLLIYNANKRASGITDRFSASKSGNTASLTISGLQSGDEAVYYCASYRYRDNAVFGGGTHLTVLG
# B12: scFv C10 (scFv)
# chain: EVQLVQPGAELRNPGASVKVSCKASGYTFTAYYIDWVRQAPGQGLEWMGRIDPEDGGTTYEQKFQGRVTFTADTSTSTVYVELSSLRSEDTAVYYCARSTEIPTIRYYGMDYWGKGTPVTVSSASAAASGSYELTQSPSVSVALRQTAKITCGGDNIGSKSAQWYQQKPGQAPVLVIYADSRRPSGIPERFSGSNSGNTATLTISGAQAEDEADYYCQVWDSSANAAVFGGGTHLTVLG
# B13: scFv C4 (scFv)
# chain: QVQLQESGPGLVKPSQTLSLTCTVSGGSITTNYYYWSWIRQPPGKGLEWMGAIAYSGSTYYSPSLKSRTSISRDTSKNQFTLQLSSVTPEDTAVYYCARGYYSGSSLDFGSWGQGTQVTVSSLPVLTQPSAVSVSLGQTARITCQGGNVGSYYTSWYQQKPGQAPVLVIYKDSERPSGIPERFSGSSSGNTATLTVSGAQAEDEGDYYCQVWDSSAAVFGGGTHLTVLG
# B14: scFv C3 (scFv)
# chain: QVQRQESGGGLVQPGGSLRLSCATSGFTFSNYYMSWVRQAPGKGPEWVSSIYSDLSTTYYADSVKGRFTISRDRAKNTLYLQMNSLKSEDTAVYYCARLSTVAGVDYWGKGTLVTVSSSYELTQSPSVSVALRQTAKITCGGNNIGSKSAQWYQQKPGQAPVLVIYADVRRPSEIPERFSGSNSGNTATLSVSGAQAEDEADYYCQVWDSSANAAVFGGGTHLTVLG
# B15: scFv D2 (scFv)
# chain: B14 chain with Q1E, V2L, R4L, Q5V, T135A, N144D, V169S, E174G, S191T, V192I
# B16: scFv D3 (scFv)
# chain: B14 chain with R4V, V105M, N144D, G146E, G158D, V169D, N186D, S191T, V192I
# B17: scFv C1 (scFv)
# chain: ELQVVESGGGLVPGGSLRLSCAASGFRVSVNAMSWVRQAPGKGLEWVSHIGSGGITGYADSVKGRFTISRDSAKNTLYLQMNSLKPEDTAVYYCTKRSSGYAWGQGTQVTVSSQAGLTQLPSVSGSPGQKITISCTGSSNNIGAGYSVQWFQQVPGSPPRLLIDGATNRDSGVPDRFSDSRSGSSASLTITGLQAEDEADYYCECYDNSLRGAVFGGGTHLTVLG
# B18: scFv C5 (scFv)
# chain: QLQLVESGGGLVEPGGSLRLSCAASGFTFSNYYMSWVRQAPGKGPEWVSSIYSDLSTTYYADSVKGRFTISRDRAKNTLYLQMNSLKSEDTAVYYCARLSTVAGVDYWGKGTLVTVSSSYELTQSPSVSVALRQTAKITCGGNNIGSKSAQWYQQKPGQAPVLVIYADSRRPSGIPERFSGSNSGNTATLTISGAQAEDEADYYCQVWDSSSNGAVFGGGTHLTVLG
# Biological target: T2, GST-tagged hNav1.7-loopA3 (human, UniProt Q15858 269-339)
# T2 construct: monomeric GST-tagged peptide; also called hNav1.7-loopA3-GST; Nav1.7-loopA3-GST; not shown: GST tag
# T2 sequence (Q15858 269-339 limits assumed): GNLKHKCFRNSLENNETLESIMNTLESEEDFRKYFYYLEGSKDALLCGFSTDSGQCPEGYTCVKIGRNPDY
# Experiment: Biacore SPR, antigen on CM5 chip, mAb in flow
# Experimental: (§1) In a further experiment, affinity of the loopA3-binding mAbs was determined using Biacore Surface Plasmon Resonance (SPR) analysis.
Kd,koff,Binder
0.0879 nM,2.13e-05 s⁻¹,B1
0.000609 nM,6.9e-07 s⁻¹,B2
3.35 nM,0.00254 s⁻¹,B3
45.2 nM,0.00063 s⁻¹,B4
0.0374 nM,1.77e-05 s⁻¹,B5
0.0169 nM,1.08e-05 s⁻¹,B6
0.216 nM,0.000356 s⁻¹,B7
0.0505 nM,1.54e-05 s⁻¹,B8
0.0825 nM,1.84e-05 s⁻¹,B9

# Biological target: T1, hNav1.7-loopA3-llama Fc fusion
# Experiment: Biacore SPR, antigen on CM5 chip, mAb in flow
# Experimental: as §1
Kd,koff,Binder
0.0375 nM,1.26e-05 s⁻¹,B1
0.00181 nM,3.58e-06 s⁻¹,B2
5.1 nM,0.00422 s⁻¹,B3
4.28 nM,0.000422 s⁻¹,B4
0.0253 nM,1.56e-05 s⁻¹,B5
0.0241 nM,1.92e-05 s⁻¹,B6
0.2 nM,0.00041 s⁻¹,B7
0.12 nM,4.48e-05 s⁻¹,B8
0.084 nM,2.68e-05 s⁻¹,B9

# Biological target: T1, hNav1.7-loopA3-llama Fc fusion
# Experiment: ELISA, coated hNav1.7-loopA3-llama Fc, mAb titrated
# Experimental: mAbs originating from the loopA3-llama Fc immunization were assayed for their affinity for hNav1.7-loopA3. Therefore, a Maxisorp plate was coated with 10 ng/well of loopA3-llamaFc chimera and incubated overnight at 4° C. The next day, the plate was blocked with PBS+1% casein for 2 hours at RT. Subsequently a concentration gradient of antibodies was applied (range 0.25 pM-66 nM) for another hour. Antibody binding to loopA3 was detected using a HRP-conjugated anti-human Fc antibody (Abcam, Ab7499) (incubation 1 hour at RT, dilution 1/5000 in PBS+0.1% casein), followed by TMB addition and OD620 nm measurement. EC50 values were determined using GraphPad Prism software. For comparison purposes a known hNav1.7-loopA3 binding monoclonal antibody, UCB_932 (US2011/0135662), was tested.
row,EC50,Binder
1,0.071 nM,B1
2,0.066 nM,B2
3,0.874 nM,B3
4,0.129 nM,B4
5,0.072 nM,B5
6,0.057 nM,B6
7,0.063 nM,B7
8,0.067 nM,B8
9,0.057 nM,B9

# Biological target: T3, Nt-GCGR-hFc (human, UniProt P47871 26-136)
# T3 construct: domain: N-terminal domain; also called Nt-GCGR-Fc; recombinant N-terminal domain of GCGR; not shown: hFc
# T3 sequence (P47871 26-136): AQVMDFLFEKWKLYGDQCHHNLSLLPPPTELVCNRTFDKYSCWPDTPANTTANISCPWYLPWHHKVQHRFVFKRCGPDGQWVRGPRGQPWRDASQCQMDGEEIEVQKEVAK
# Experiment: scFv binding ELISA, periplasmic extract on coated Nt-GCGR
row,ScFv binding ELISA signal,Binder
1,0.1,B10
2,0.465,B11
3,0.88,B12
4,0.274,B13
5,0.058,B14
6,0.52,B15
7,0.987,B16
8,1.54,B17
9,1.88,B18
